Assay results reported in patent US20230287131A1 (ORIONIS BIOSCIENCES, published 2023).

Legend:
[1] = biological target: hTNF-R2 on Raji cells or PC60-hTNFR2 cells (human) (UniProt P20333); experiment: cell-based or functional assay
[2] = biological target: T1, soluble hTNF-R1 (Peprotech) (human, UniProt P19438 30-211); experiment: BLI (Octet RED96), His-tagged TNF on HIS1K biosensor, soluble receptor in solution, 1:1 global fit
T1 construct: extracellular domain; also called p55
T1 sequence (looked up): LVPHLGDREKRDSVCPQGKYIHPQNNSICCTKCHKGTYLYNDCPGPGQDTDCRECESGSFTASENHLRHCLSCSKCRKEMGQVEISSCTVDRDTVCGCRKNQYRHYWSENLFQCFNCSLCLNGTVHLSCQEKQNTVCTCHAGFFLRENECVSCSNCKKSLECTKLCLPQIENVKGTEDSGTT
Method: (§1) KD values were calculated using global fitting with a 1:1 model (R²≥0.95).

[3] = biological target: T2, soluble hTNF-R2 (Peprotech) (human, UniProt P20333 23-257); experiment: as above
T2 construct: extracellular domain; also called p75
T2 sequence (looked up): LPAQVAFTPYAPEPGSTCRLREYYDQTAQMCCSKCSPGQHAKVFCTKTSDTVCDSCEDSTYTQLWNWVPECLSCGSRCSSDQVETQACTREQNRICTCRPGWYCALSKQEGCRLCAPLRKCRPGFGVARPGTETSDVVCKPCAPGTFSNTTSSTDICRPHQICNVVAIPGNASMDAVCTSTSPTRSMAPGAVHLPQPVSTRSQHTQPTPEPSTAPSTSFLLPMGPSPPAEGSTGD
Method: as §1

[4] = biological target: T1, soluble hTNF-R1 (Peprotech); experiment: BLI (Octet RED96), affinity relative to WT hTNF
Method: as §1

Molecule “BclI10 Nanobody (control) - 20xGGS - hTNF Y87H/A145R - 6xHis AcTakine” has an OPRM1 mRNA expression in Raji cells (qPCR), against unstimulated cells [1] of 5 fold.

B1: hTNF mutant A145T E146D S147D (N-terminal 6xHis tag) (ligand)
chain: HHHHHHVRSSSRTPSDKPVAHVVANPQAEGQLQWLNRRANALLANGVELRDNQLVVPSEGLYLIYSQVLFKGQGCPSTHVLLTHTISRIAVSYQTKVNLLSAIKSPCQRETPEGAEAKPWYEPIYLGGVFQLEKGDRLSAEINRPDYLDFTDDGQVYFGIIAL
In the case of B1, the Kd [2] is reported as 5.1 µM, the Kd [3] is reported as 0.00478 µM and the “% WT R1” value [4] is reported as 0.35%.
